Results published in paper PMC2138355.

Target: fourth component of human complement (C'4) (human)
Test: sucrose density gradient ultracentrifugation

C'2 oxidized by treatment with a critical concentration of iodine (oxyC'2) (natural protein)
s rate of C'2 in mixtures with C'4 (pH 5): 7.7 S
s rate of C'2 in mixtures with C'4 (pH 8): 13.5 S
